Laboratory results: the DeepSol protein solubility set

Experiment: soluble on expression in E. coli; label from the status in PepcDB or PDB records

| Sequence | soluble on expression in E. coli |
| --- | --- |
| HHHHHHKVDLGGFAGLFDLKAAGFKDPLLASGTDGVGTKLKIAQLCNKHDTIGQDLVAMCVNDILAQGAEPLFFLDYFSCGKLDLSVTEAVVAGIAKACGKAGCALLGGETAEMPDMYPPGEYDLAGFAVGAMERDQKLPHLERITEGDVVVGIASSGLHSNGFSLVRKIVAKSSLQYSSPAPDGCGDQTLGDLLLTPTRIYSHSLLPVLRSGHVKAFAHITGGGLLENIPRVLPEKLGVDLDAQTWRIPRVFSWLQQEGHLSEEEMARTFNCGVGAVLVVSKEQTEQILRGIQQHKEEAWVIGSVVARAEGSPRVKVKNLIESMQINGSVLKN | soluble |
| MGQDQTKKQIEKGLQLYQSNQTEKALQVWTKVLEKSSDLMGRFRVLGCLVTAHSEMGRYKEMLKFAVVQIDTARELEDADFLLESYLNLARSNEKLCEFHKTISYCKTCLGLPGTRAGAQLGGQVSLSMGNAFLGLSVFQKALESFEKALRYAHNNDDAMLECRVCCSLGSFYAQVKDYEKALFFPCKAAELVNNYGKGWSLKYRAMSQYHMAVAYRLLGRLGSAMECCEESMKIALQHGDRPLQALCLLCFADIHRSRGDLELSQLKLHCLSESIYRSKGLQRELRAHVVRFHECVEETELYCGLCGESIGEKNSRLQALPCSHIFHLRCLQNNGTRSCPNCRRSSMKPGFV | soluble |
| MVEQCPALKSRIKPMLSQKRLVYKPLGSFYQVLSAEAYTKHGLNVHGVVFDELHAQPNRDLYDVMLHGSGDARKQPLFFLITTAGTDRNSICWEVHQKAEDILQGRKIDPTFYPVIYSASDTDDWTSEKVWRKVNPSLGITVDIEKLRVACENAKQNPAEENLFRQLRLNQWVKQSVRWMPMDKWDKCAFPVDAEKLRGRTCYGGLDLSSTTDITAFVLVFPPLDESDKYQILTFFWIPEENIDQRVRRDHVPYDVWERQGFLYTTEGNVVHYGFIETFIEELGMKYNIKEIAFDRWGAIQMTQNLEALGFTVVPFGQGFKDMSPPTKELMKLTLEERIAHGGHPVLRWMMDNIYVKTDPAGNIKPDKEKSTERIDGAVALIMALDRALRHDGDERNGSIYDERGILFL | soluble |
| MEIKERIQLLLSEMNRGVYEKEAEIGLSLLAALAGESILLLGPPGVAKSMVARRLKRAFVDARAFEYLMSRFSTPDEIFGPVSISRLKESDKYERAVDGYLPTADVVFLDEIWKAGPAIQNTLLTVINEKLFRNGDTELKLPLKLLVAASNELPTQGEGLEALWDRFLIRIISTCVKQEEAFYQMLLDDDDEEEQEACRWQISDEEYAGWQKEIRQIKVSAEVLSCITEIRKNLEKVEIQGSEVHRNVYVSDRRWKNIVKLLKASAFIHGRKEVCLTDLLPVYHCLWNEPEECADIRQIVVRALFVPYVKEIAAINLSLKSDLKVSRVREALEKARQKGDRRDDDLMIIDHFYYQIENHGTGNTYIFIVDYKNLKEYSPKDVPATGVMYADPLNPKRTIIRTFSDATKMKEQGAERVTLYRDEKNLYINGVRFPMRRLKRGEQQQLWLGNMTLTDRDYETELETAHGRIEKLVKDLSENIFISEEDKKGVAQYVATLRKEIAWARVDVRKLRYGDES | not soluble |
| SLWQPQTGDIIFQISRSSQSKAIQLATHSDYSHTGMLVMRNKKPYVFEAVGPVKYTPLKQWIAHGEKGKYVVRRVEGGLSVEQQQKLAQTAKRYLGKPYDFSFSWSDDRQYCSEVVWKVYQNALGMRVGEQQKLKEFDLSNPLVQAKLKERYGKNIPLEETVVSPQAVFDAPQLTTVAKEWPLFSW | soluble |
| MSAEASGPAAAAAPSLEAPKPSGLEPGPAAYGLKPLTPNSKYVKLNVGGSLHYTTLRTLTGQDTMLKAMFSGRVEVLTDAGGWVLIDRSGRHFGTILNYLRDGSVPLPESTRELGELLGEARYYLVQGLIEDCQLALQQKRETLSPLCLIPMVTSPREEQQLLASTSKPVVKLLHNRSNNKYSYTSTSDDNLLKNIELFDKLALRFHGRLLFLKDVLGDEICCWSFYGQGRKIAEVCCTSIVYATEKKQTKVEFPEARIFEETLNILIYETPRGPDPALLEATGGAAGAGGAGRGEDEENREHRVRRIHVRRHITHDERPHGQQIVFKDLEHHHHHH | not soluble |
| MAHHHHHHMTESTHLIDAGCFISQMNELVLIDPLYMNYVITNYFNYLINDKNELLPKESLNGVYFENAKPGLWSSFAIKEKNIFLPNSQKMEQNMIDLGIDKNYGNEIITSFACFNNTEFMHEYLTVEKLNELKWEKFESNINCIGNHNNGNIYKSQSKEEDKPINFSNYFTNILTVESGQVGLFCTESIKNCTNALLEKYEIYDIKNKEELDNFFNKNMNDLYPWYNKICNLTLSSSITIIDYIDMPLGSVCMSGSDCVSNYLCEVVKDDITGEIWAIRVNFFNPFK | soluble |
| MAHHHHHHMSQLKIKRGNFLFTSESVNEGHPDKICDQISDAILDSCLREDPYSKVACEVCAKKNYIFIFGEITTKAKVNYDKVTRDVLKHIGYDDESKGLDYKTAEIKVSIDEQSPDIAQCVHENRSPELIGAGDQGIMFGYATDETENYMPLTHHYATLLGKRLTEVRKLGILPYLGPDGKTQITIEYKNKGSCGGHLEPLRVHTVLISTQHAEDIKYEQLKTDLMENVIKYVIPEKLLDNETLYYLNPSGKFVLGGPAADAGLTGRKIICDTYGGWGAHGGGAFSGKDASKVDRSAAYYLRFIAKSLVANKFCRRVLVQASYSIGIANPISLNVNSYGTVSTGYTDYDLEQIILRNFDLRPGFIIQELKLTEPVFSKTSAYGHFGREGDTFTWEKIKDLSHEKNALKN | soluble |
| MSLSAMQWERLLDPTRLNDKHGGSREEIGRSPFHKDHDRIVFAGSFRRLGRKTQVHPLTDNDHIHTRLTHSLEVGCVGRSLGMIVGEQLRERLPAWITPADLGVIVQAACLGHDIGNPPFGHAGEYAIRDWFKRAEADGSGLLADLAPAEREDLLTYEGNAQGFRIVTQIEYNQFNGGMRLTAATLGTMLKYPWTVERASRAGKFGCYQSERELLGEVAERLGLLPRGETAWCRHPLAYLVEAADDICYALLDLEDGLEMGILRFDEVAEILIQIAGGAPEGYDGMRARGVSQRRRIATLRGAAMERAVNDVAAVFVAHESALLGGTLSEDLLELCHPDLGWGVGTAKRIARERIFQNERKAKLEIGAYTTLGILLEAFIGAAHELHYSGQSSFKHQRVLALIGENTPKSSWSLYASYRRMLDFIGGMTDHYAVDLAQEMGGRLEGHHHHHH | soluble |
| MPREESESPLLVYEDPRHTPYTPFKYARKDEEERSSGGGKSPPKKAPKAQDRMSLRDKFEAAPTTKKRKTAQDPADELLQAIKPLFNQVKKEMADQLADQLGRFNEQLDMAVNSFSDEIVKLKADHALAEKNVDTYAQKVSGMFQRADMMSANVQEQRTQQAEDNRMASKARDRIIYDIAQVATNMKTMSETIAKIDAREEQAAQKQAERHTPQGGQGSLEPALKCPLCKRHHAPENCTIIRNGLDRREEAEKIKMCIQCLEVGVTNDDWVHEGCPKEKEQCTRCTKYMKPGEIAQTHHNATFCLMLTSKQYKLERKGSPSDRDYSPKGRRGPIRSRHNRYGG | not soluble |
| MSPSLLGSSFLRSASGNFTKFASIRNAHFLSSVPMKKRGVDGNLPKDYFENKTVVVYFSAGWCGSCKFLTPKIKKFYNAVKESDAGKNLEIVWVSKDKEAAHQEEYYEKNLPDWPYIPFGDENIQKLSEKYKAVVIPVLKLVNSNGDVVHDRVRADVEAGIKADPVKTMEEWKKLLNQ | not soluble |
| MSLLQTKDYEFWFVTGSQHLYGEETLELVDQHAKSICEGLSGISSRYKITHKPVVTSPETIRELLREAEYSETCAGIITWMHTFSPAKMWIEGLSSYQKPLMHLHTQYNRDIPWGTIDMDFMNSNQSAHGDREYGYINSRMGLSRKVIAGYWDDEEVKKEMSQWMDTAAALNESRHIKVARFGDNMRHVAVTDGDKVGAHIQFGWQVDGYGIGDLVEVMDRITDDEVDTLYAEYDRLYVISEETKRDEAKVASIKEQAKIELGLTAFLEQGGYTAFTTSFEVLHGMKQLPGLAVQRLMEKGYGFAGEGDWKTAALVRMMKIMAKGKRTSFMEDYTYHFEPGNEMILGSHMLEVCPTVALDQPKIEVHSLSIGGKEDPARLVFNGISGSAIQASIVDIGGRFRLVLNEVNGQEIEKDMPNLPVARVLWKPEPSLKTAAEAWILAGGAHHTCLSYELTAEQMLDWAEMAGIESVLISRDTTIHKLKHELKWNEALYRLQKEGHHHHHH | soluble |
| MGSDKIHHHHHHMRAALAQGCDPMVLTGEVWPKWRIWTRDADRFLDDAPLNKLTAPAGIPLSSFRAATLKSVAERVSKGPLPDRAVWPWILALGARNTKRRSGLQYCPDCLRDDRIPYYRLQWRLAWHVGCEHHHCSLLDRCPHCRAPLEPHRLHAEDGHMAVCATCRGDLRDVGAITPCSDDAMAFQDAGDEAIRHGSGQFMAHPTETDAWFAGASFLSALLRRANRSDAEALHVFLERMGVAVPELPLNPGTGVELLGTAERHLLLGALWKLMRTDLADVSKYLQESGITRQGFVSKGERMPDLFAETFAQLPDNARGPRKQAVRDPGQPRPRHEVMRMWRRLQRKLEMSQR | not soluble |
| MSLASSLHVLLEKIIKIGDLTVNSPGGSRTFGDGTGKKVVLNFTDEAAMQEIAADPALKLAEMYMEGRAKVAKGDIYDFLALVKGNTLSEALSFGMIWRGMARIIAARIKMRLPVNHNKSNVAHHYDLSAKLFDLFLDEDWQYSCAYFNPPDIGLYEAQVAKKRHIAAKLMTEPGQSVLEIGSGWGGMAMYIAESAGADVTGITLSEEQLRVSRDRAAKRGLAGNVRFELQDYRYLPASKKYDRIVSVGMFEHVGPTHYRDYFDKVAEVLDDKGVMVLHSIGQPYPALATNPFIEKYIFPGGYIPSLAEVLPAIQKSGLLVKDIEILPMHYAHTLRHWRERFVARKAEAVALYDERFFRMWEFYLAGSEMAFTHENFHIFQIQLAKDRDAVPHNRDYIAQNEAKLLEFEKTRPPLEKVSEGHHHHHH | soluble |
| MMSGQGKRLMVMAGGTGGHVFPGLAVAHHLMAQGWQVRWLGTADRMEADLVPKHGIEIDFIRISGLRGKGIKALIAAPLRIFNAWRQARAIMKAYKPDVVLGMGGYVSGPGGLAAWSLGIPVVLHEQNGIAGLTNKWLAKIATKVMQAFPGAFPNAEVVGNPVRTDVLALPLPQQRLAGREGPVRVLVVGGSQGARILNQTMPQVAAKLGDSVTIWHQSGKGSQQSVEQAYAEAGQPQHKVTEFIDDMAAAYAWADVVVCRSGALTVSEIAAAGLPALFVPFQHKDRQQYWNALPLEKAGAAKIIEQPQLSVDAVANTLAGWSRETLLTMAERARAASIPDATERVANEVSRVARALEHHHHHH | soluble |
| MKYIEPHFISFTQHTLKSQLIPKSFHGMKILQFSDLHLGYYFSLQHLSQVVSKINAVNPDIVLFTGDLIDNYQTYTDTPFVASILKNIQAPFGKFAIYGNHDHGGYGTEYYEHIMRESGFELLLNSKKRIRLMDNSEISIFGLDDILLGKPKIEKTLQHARQNTYNIVLVHEPDIAPQISKYPINLQLSGHSHGGQVQIPFLGAIITPSLAKDYIEGFYTMQDLTLYVNRGLGRTRVPFRFMSKPEITIFTLQHSLEHHHHHH | not soluble |
| MISVMQQMINNDSPEDSKESITSVQQTPFFWPSAAAAIPSIQGESRSERESETGSSPQLAPSSTGMVMPGTAGMYGFGPSRMPTANEFGMMMNPVYTDFYQNPLASTDITIPTTAGSSAATTPNAAMHLPWAISHDGKKKRQPYKKDQISRLEYEYSVNQYLTNKRRSELSAQLMLDEKQVKVWFQNRRMKDKKLRQRHSGPFPHGAPVTPCIERLIN | not soluble |
